Sequences and labels used below:
B2: Mec3 (natural protein, S. cerevisiae, UniProt Q02574 1-474, looked up)
chain: MKLKLIVNGCEAPDDYKLLRTTINTVASLRKTAILRFNSERLTIISTPKSSLNSSNNGTILRGDTGQLWCTIPHDVFRLYTVISARELNTITMECNCDSLLSVFKRYDRVMNQGSSSNMTIKLQSMPEWNTNNGTLSGGTAGGVDTTSKPNPICALGITFEEIVHTSGPNDAIVMNGGVDEHNGLPTTVGTGNLLASNKVIMHSFKVPVKLLFRAQDTRIQEPMINYIQLMMYKLPPISGEFGSAFHGFIRRVERYSNVNHIHLMGVKKKEHGNEGDDVELKIIVNELDWHLEICWNGPLDSVIQRQEGLTDNPSQNQHIDTDGRQEEGSLPIIEADKPMSSLYTNTRDREMEENIRYDEDLLRIEDSSIADTRGNIYTADTSGDTEFNDISVMVEKAEQESSSTHEVIIRCKDWKVCSKLYAAFEEVVLAISHDESCVFHCSLDRGSLEDSEDVEKPRERGQIIYYIARSKGL

Read-outs that look alike come from different tables or passages of the source.

Data set [1] has as its target T1, Rad24-RFC clamp loader;9-1-1 checkpoint clamp (Saccharomyces cerevisiae;Saccharomyces …, UniProt P32641;P40339;P38629;P40348;P38251;Q08949;Q02574;P48581 …, |). Briefly: cryo-EM.
Data set [2] has as its target T2, Ddc1 (S. cerevisiae, UniProt Q08949 1-612).
T2 sequence: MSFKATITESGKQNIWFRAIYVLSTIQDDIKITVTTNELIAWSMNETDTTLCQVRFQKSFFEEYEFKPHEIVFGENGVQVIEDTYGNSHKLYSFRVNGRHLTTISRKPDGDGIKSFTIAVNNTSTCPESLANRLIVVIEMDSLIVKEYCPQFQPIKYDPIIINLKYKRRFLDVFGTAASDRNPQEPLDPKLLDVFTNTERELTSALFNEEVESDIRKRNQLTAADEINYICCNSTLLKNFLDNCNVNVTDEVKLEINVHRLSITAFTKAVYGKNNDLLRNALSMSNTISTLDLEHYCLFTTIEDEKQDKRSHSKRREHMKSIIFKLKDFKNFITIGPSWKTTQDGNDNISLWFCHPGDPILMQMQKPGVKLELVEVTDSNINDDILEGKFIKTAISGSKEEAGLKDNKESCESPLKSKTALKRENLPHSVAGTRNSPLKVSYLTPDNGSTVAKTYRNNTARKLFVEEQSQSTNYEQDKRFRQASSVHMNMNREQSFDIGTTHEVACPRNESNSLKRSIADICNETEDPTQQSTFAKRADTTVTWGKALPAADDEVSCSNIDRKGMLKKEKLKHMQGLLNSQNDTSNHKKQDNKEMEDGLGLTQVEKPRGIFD
Briefly: cryo-EM structure.

For data set [3], the target named is T1, Rad24-RFC clamp loader;9-1-1 checkpoint …. Briefly: cryo-EM. The source holds these as a separate data set.
Data set [4] deals with Rad24-RFC clamp loader;32P-9-1-1 checkpoint clamp (Saccharomyces cerevisiae;Saccharomyces …, UniProt P32641;P40339;P38629;P40348;P38251;Q08949;Q02574;P48581 …, |). In words: magnetic bead clamp loading.
Data set [5] has as its target B2. Briefly: cryo-EM structure.

B1: 10-nt gapped DNA (cryo-EM) (mixed)
DNA 1: CGGTATAGGCGATACGAATCTTTTTTTTTTCCGTATAGCCGTAGCGAGCC
DNA 2: GGCTCGCTACGGCTATACGG
DNA 3: GATTCGTATCGCCTATACCG
Consider B1, for which the binding result in data set [1] is reported as “binds”.

Turning to B2, the binding result in data set [2] is reported as “binds”.

B3: 5-nt gapped DNA (cryo-EM) (mixed)
DNA 1: CGGTATAGGCGATACGAATCTTTTTCCGTATAGCCGTAGCGAGCC
DNA 2: GGCTCGCTACGGCTATACGG
DNA 3: GATTCGTATCGCCTATACCG
B3: the binding result in data set [3] is “binds”.

B4: 10-nt gap DNA (loading) (mixed)
DNA 1: CGGTATAGGCGATACGAATCTTTTTTTTTTCCGTATAGCCGTAGCGAGCCCGACCATACC
DNA 2: GGTATGGTCGGGCTCGCTACGGCTATACGG
DNA 3: GATTCGTATCGCCTATACCG
modifications: 5' phosphate on primer 2
B4: the binding result in data set [4] is given as “binds”.

B5: Rad17 (natural protein, S. cerevisiae)
chain: MRINSELANKFSASTVHLEHITTALSCLTPFGSKDDVLIFIDADGLSFVRENNHVIKIQLLLSRELFMSYSYRNETEDHMKLCVKINHILDSVSVMNRNSDDIVECTLSYDGHGSPFVLIFEDSFISERVEYSTYLIKDFDTNGLELDRERISFEAIIKGEALHSALKDLKEIGCKECYVYAKTEANDENVFALISKSQLGFSKIKLPSNRSILEKLQVFDGDSTTVIDGFAVIGFFDFTSFDKIRKSTKIASKVLFRMDVHGVLSVNILSQTDDVIITDTTRPSNNRPGSIRQLQLPKDYPGIVIEVCMLEKESIDEAAQTEIELLMETNELGNRNSFKKSTIRKRYGTDKGNETSNDNLLQLNGKKIKLPSEEENNKNRESEDEENHCKYPTKDIPIFF
Consider B5, for which the binding result in data set [5] is reported as “binds”.

Values taken from paper PMC10529453 (Cell reports, 2023).
